T1: Human FGFR2 IIIb D1-3 (human)
T1 construct: Extracellular domains D1-3 with C-terminal tag, made in HEK293T; also called recombinant human FGFR2 IIIb; hFGFR2
T1 chain: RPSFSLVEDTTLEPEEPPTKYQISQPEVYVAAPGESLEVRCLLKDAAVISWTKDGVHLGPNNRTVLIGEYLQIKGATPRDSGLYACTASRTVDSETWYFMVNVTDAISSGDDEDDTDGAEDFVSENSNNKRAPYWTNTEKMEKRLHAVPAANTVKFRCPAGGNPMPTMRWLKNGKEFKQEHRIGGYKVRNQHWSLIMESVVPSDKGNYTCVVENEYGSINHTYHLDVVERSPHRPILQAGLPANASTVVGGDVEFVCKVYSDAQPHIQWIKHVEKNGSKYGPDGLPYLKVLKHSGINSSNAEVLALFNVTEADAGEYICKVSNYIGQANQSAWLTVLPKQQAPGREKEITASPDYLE

T2: Cynomolgus monkey FGFR2 IIIb D1-3 (cynomolgus monkey)
T2 construct: also called Cyno FGFR2 IIIb
T2 chain: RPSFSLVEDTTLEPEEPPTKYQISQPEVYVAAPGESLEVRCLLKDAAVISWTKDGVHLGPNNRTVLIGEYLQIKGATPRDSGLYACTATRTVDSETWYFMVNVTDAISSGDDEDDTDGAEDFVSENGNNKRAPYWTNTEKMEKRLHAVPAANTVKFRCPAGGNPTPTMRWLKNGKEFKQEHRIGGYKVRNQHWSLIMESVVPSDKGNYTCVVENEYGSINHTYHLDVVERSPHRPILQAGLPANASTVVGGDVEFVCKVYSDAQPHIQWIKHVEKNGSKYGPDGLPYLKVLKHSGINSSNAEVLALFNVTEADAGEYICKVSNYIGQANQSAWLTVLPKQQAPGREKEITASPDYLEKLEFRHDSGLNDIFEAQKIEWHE

T3: FGFR2 D2-D3 Construct (human)
T3 construct: E. coli made, not glycosylated; also called E. Coli. derived FGFR2D2-D3 protein
T3 chain: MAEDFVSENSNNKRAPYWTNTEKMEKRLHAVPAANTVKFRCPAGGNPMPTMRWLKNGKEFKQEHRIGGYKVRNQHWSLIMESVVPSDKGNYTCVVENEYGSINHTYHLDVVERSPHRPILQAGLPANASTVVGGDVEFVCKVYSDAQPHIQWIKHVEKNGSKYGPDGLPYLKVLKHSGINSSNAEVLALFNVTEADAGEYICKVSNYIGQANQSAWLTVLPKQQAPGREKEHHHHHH

T4: FGFR2 D2 (human)
T4 construct: trypsin was added to the complex before crystallisation; also called FGFR D2; human FGFR2 ECD fragment (domain 2)
T4 chain: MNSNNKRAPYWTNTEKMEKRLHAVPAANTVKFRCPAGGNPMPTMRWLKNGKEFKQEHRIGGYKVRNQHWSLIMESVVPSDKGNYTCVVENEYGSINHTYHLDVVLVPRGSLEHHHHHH

B1: mAb12433 (antibody, human IgG1, kappa, V domains shown)
VH: QVQLVQSGAEVKKPGESLKISCKGSGYSFTNYYIHWVRQMPGKGLEWMGAIYPDNSDTTYSPSFQGQVTISADKSISTAYLQWSSLKASDTAMYYCARGADIWGQGTLVTVSS
VL: DIQMTQSPSSLSASVGDRVTITCRASQDIDPYLSNWYQQKPGKAPKLLIYDASNLQSGVPSRFSGSGSGTDFTLTISSLQPEDFATYYCQQTTSHPYTFGQGTKVEIKR
notes: HuCAL human IgG1
B2: 12425 Fab (Fab, V domains shown)
VH: QVQLLESGGGLVQPGGSLRLSCAASGFTFSDYAMSWVRQAPGKGLEWVSVIEGDGSYTHYADSVKGRFTISRDNSKNTLYLQMNSLRAEDTAVYYCAREKTYSSAFDYWGQGTLVTVSS
VL: DIQMTQSPSSLSASVGDRVTITCRASQDISSDLNWYQQKPGKAPKLLIYDASNLQSGVPSRFSGSGSGTDFTLTISSLQPEDFAVYYCQQHYSPSHTFGQGTKVEIKR

Legend:
Rat FGFR2 IIIb D1-3 [1] = molecular target: T5, Rat FGFR2 IIIb D1-3 (rat); assay: SPR Biacore, IgG captured via anti-human Fc, soluble FGFR as analyte
T5 construct: Extracellular domains with C-terminal tag
Description: (§1) Affinity of the antibodies to FGFR2 species orthologues was determined using Biacore technology using a Biacore T100 instrument (GE Systems) and with CM5 sensor chips.
(§2) For kinetic measurements, experiments were performed in which the antibodies were immobilized to the sensor chip surface and the ability of the FGFR proteins described above listed in Table 1 to bind in free solution was determined Briefly, 50 μg/ml of anti-human Fc antibody at pH 4.75 was immobilized on a CM5 sensor chip through amine coupling at flow rate of 10 μl/minute on all four flow cells to reach 6000 RUs. […] Subsequently, 0.078-100 nM of FGFR receptors, diluted in a 2-fold series, were injected at a flow rate of 80 μl/min for 7 min over both reference and test flow cells. Dissociation of the binding was followed for 10 min using HBS-EP⁺ supplemented with 0.5 mg/ml of BSA and 10 μg/ml heparin as running buffer. After each injection cycle, the chip surface was regenerated with 10 mM glycine, pH 2.0 at 60 μl/min for 70 s.

Mouse FGFR2 IIIb D1-3 [2] = molecular target: T6, Mouse FGFR2 IIIb D1-3 (mouse); assay: as above
T6 construct: Extracellular domains with C-terminal tag
Description: as §1, §2

Human FGFR2 IIIb D1-3 [3] = molecular target: T1, Human FGFR2 IIIb D1-3; assay: as above
Description: as §1, §2

[4] = molecular target: T2, Cynomolgus monkey FGFR2 IIIb D1-3; assay: as above
Description: as §1, §2

FGFR2 D2-D3 Construct = molecular target: T3, FGFR2 D2-D3 Construct; assay: HDx-MS, antigen incubated 30 min with antibody
Description: The epitope mapping experiments described in this example were performed on a Waters HDx-MS platform, which includes a LEAP autosampler, nanoACQUITY UPLC System, and Synapt G2 mass spectrometer. The studies were automated by a LEAP autosampler operated by the LeapShell software, which performed initiation of the deuterium exchange reaction, reaction time control, quench reaction, injection onto the UPLC system and digestion time control. The Leap autosampler was equipped with two temperature controlled stacks maintained at 25° C. for HDx reaction and maintained at 2° C. for storage of protein and quench solution, respectively. Triplicate control experiments were carried out on antigen at a deuterium exchange time of 25 minutes. HDX was quenched with quenching buffer (6 M urea and 1 M TCEP pH=2.5). […] Triplicate experiments were carried out on antigen-mAb complex just as the control experiments except in these experiments the antigen in incubated for 30 min with the antibody at 25° C. prior to deuterium exchange.

Rat FGFR2 IIIb D1-3 [5] = molecular target: T5, Rat FGFR2 IIIb D1-3; assay: SPR Biacore, method as Example 2
Description: as §2

Mouse FGFR2 IIIb D1-3 [6] = molecular target: T6, Mouse FGFR2 IIIb D1-3; assay: SPR Biacore, method as Example 2
Description: as §2

Human FGFR2 IIIb D1-3 [7] = molecular target: T1, Human FGFR2 IIIb D1-3; assay: SPR Biacore, method as Example 2
Description: as §2

[8] = molecular target: T2, Cynomolgus monkey FGFR2 IIIb D1-3; assay: SPR Biacore, method as Example 2
Description: as §2

Human FGFR2 IIIb D1-3 [9] = molecular target: T1, Human FGFR2 IIIb D1-3; assay: SPR Biacore, method as Example 2
Description: as §2

FGFR2 D2 = molecular target: T4, FGFR2 D2; assay: complex purified by size exclusion chromatography and crystallised
Description: Peak fractions were analyzed by SDS-PAGE and LCMS.
Crystals were grown by sitting drop vapor diffusion. In detail, 0.1 μl of protein was mixed with 0.1 μl of reservoir solution which contains 0.1 M tri-sodium citrate dihydrate pH 5.0, 20% (w/v) PEG6000; and the drop was equilibrated against 45 μl of the same reservoir solution at 20° C.

T5 sequence (P21803 other isoform, or with tags, fused parts or gaps): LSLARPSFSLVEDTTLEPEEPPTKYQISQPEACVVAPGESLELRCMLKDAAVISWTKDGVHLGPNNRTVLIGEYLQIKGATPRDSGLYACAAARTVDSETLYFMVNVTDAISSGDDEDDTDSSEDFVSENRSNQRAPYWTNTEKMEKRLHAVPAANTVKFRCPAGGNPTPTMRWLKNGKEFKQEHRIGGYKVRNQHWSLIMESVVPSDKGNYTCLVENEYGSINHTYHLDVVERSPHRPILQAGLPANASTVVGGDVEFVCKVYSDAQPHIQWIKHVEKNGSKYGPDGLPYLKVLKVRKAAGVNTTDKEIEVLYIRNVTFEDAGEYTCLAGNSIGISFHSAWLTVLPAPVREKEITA

Row | Binder | Kd (Rat FGFR2 IIIb D1-3 [1]) | Kd (Mouse FGFR2 IIIb D1-3 [2]) | Kd (Human FGFR2 IIIb D1-3 [3]) | Kd [4] | binding result (FGFR2 D2-D3 Construct) | Kd (Rat FGFR2 IIIb D1-3 [5]) | Kd (Mouse FGFR2 IIIb D1-3 [6]) | Kd (Human FGFR2 IIIb D1-3 [7]) | Kd [8] | Kd (Human FGFR2 IIIb D1-3 [9]) | binding result (FGFR2 D2)
1 | B1 | 12 nM | 8 nM | 5.6 nM | 12 nM | binds | 3.7 nM | 2.2 nM | 5.6 nM | 1.7 nM | 5.6 nM | 
2 | B2 |  |  |  |  |  |  |  |  |  |  | binds

— patent US20140308201A1 (Novartis, published 2014)
